Results on 20 sequences are retold here after the Immune Epitope Database (IEDB).

In one assay the target is HLA-B*45:01. As to the kind of experiment: IEDB peptide-MHC binding, purified MHC/competitive/radioactivity; filed as Kd, often an IC50 or EC50 that approximates it; ≥ and ≤ were set here for values at or beyond the usual limits of such assays.
A further assay deals with HLA-B*40:02. The description is as above.
Another assay concerns the target HLA-B*44:02. Described as above.
The next assay concerns the target HLA-B*40:01. The assay is described as above.
Another assay has as its target HLA-B*44:03. Described as above.
The next assay deals with HLA-B*18:01. The description is as above.
Another assay addresses HLA-A*24:02. As to the kind of experiment: IEDB peptide-MHC binding, purified MHC/competitive/fluorescence; ≥ and ≤ were set here for values at or beyond the usual limits of such assays. To be noted: source organism: Zaire ebolavirus.
Another assay has as its target HLA-A*11:01. The description is as above.
The target of a further assay is HLA-B*07:02. As to the kind of experiment: IEDB peptide-MHC binding, purified MHC/competitive/radioactivity; filed as Kd, often an IC50 or EC50 that approximates it; ≥ and ≤ were set here for values at or beyond the usual limits of such assays.
Assay [1] concerns the target HLA-B*51:01. The assay is described as above.
The target in a further assay is HLA-B*53:01. The assay is described as above.
For another assay, the target named is HLA-B*35:01. The assay is described as above.
Another assay has as its target HLA-B*54:01. Described as above.
The target in assay [2] is HLA-B*51:01. As to the kind of experiment: IEDB peptide-MHC binding, purified MHC/competitive/fluorescence; filed as Kd, often an IC50 or EC50 that approximates it; ≥ and ≤ were set here for values at or beyond the usual limits of such assays. To be noted: source organism: Mycobacterium tuberculosis CDC1551.
The target of the next assay is HLA-A*02:01. As to the kind of experiment: IEDB peptide-MHC binding, purified MHC/competitive/fluorescence; ≥ and ≤ were set here for values at or beyond the usual limits of such assays. To be noted: source organism: Zaire ebolavirus.
The next assay has as its target HLA-B*08:01. As to the kind of experiment: IEDB peptide-MHC binding, purified MHC/competitive/radioactivity; filed as Kd, often an IC50 or EC50 that approximates it; ≥ and ≤ were set here for values at or beyond the usual limits of such assays. To be noted: source organism: Hepacivirus hominis.
In a further assay the target is HLA-A*01:01. The description is as above. To be noted: source organism: Dengue virus 3 Martinique/1243/1999.
The target in a further assay is HLA-B*57:01. The assay is described as above. To be noted: source organism: Dengue virus 3 Martinique/1243/1999.
The mark [3] stands for this setting: source organism: SARS coronavirus Tor2.
Where [4] appears, read: source organism: Zaire ebolavirus.
[5] abbreviates: source organism: Vaccinia virus WR.
Where [6] appears, read: source organism: Lymphocytic choriomeningitis virus (strain Armstrong).
Setting [7] is: source organism: Mammarenavirus machupoense.
The mark [8] stands for this setting: source organism: Hepacivirus hominis.
[9] abbreviates: source organism: Mammarenavirus juninense.

Broadly, the Kd is a measure of binding affinity in units of concentration. What is called IC50 is the concentration that gives 50% inhibition. A high value points to lower potency.

On to KETLYRIDG, for which the Kd with HLA-B*45:01 (setting [3]) is not below 24000 nM; in the assay with HLA-B*40:02 (setting [3]), not below 45600 nM; in the assay with HLA-B*44:02 (setting [3]) it was not below 57700 nM; in the assay with HLA-B*40:01 (setting [3]) it was not below 46000 nM; in the assay with HLA-B*44:03 (setting [3]) it was not below 30600 nM; with HLA-B*18:01 (setting [3]) it was not below 77500 nM.

Consider LDGQQFYWP, for which the results for the IC50 in the assay with HLA-A*24:02 and in the assay with HLA-A*11:01 (setting [4]) were not below 210000 nM and not below 150000 nM, respectively.

With LPFTLGIMAI, the dissociation constant Kd with HLA-B*07:02 (setting [3]) was determined as 743 nM; with HLA-B*51:01 [1] (setting [3]), 1210 nM; with HLA-B*53:01 (setting [3]), 487 nM; in the assay with HLA-B*35:01 (setting [3]) it was 4980 nM; with HLA-B*54:01 (setting [3]), 150 nM.

For LPHLCLDYKV, the Kd with HLA-B*07:02 (setting [5]) turned out to be 8450 nM; in the assay with HLA-B*51:01 [1] (setting [5]) it was 360 nM; with HLA-B*53:01 (setting [5]), 1080 nM; with HLA-B*35:01 (setting [5]), 10100 nM; with HLA-B*54:01 (setting [5]) it was 4.99 nM.

LPPGSDEHI showed a Kd with HLA-B*51:01 [2] not below 20000 nM.

Turning to NDLQFGFGW, the Kd with HLA-B*45:01 (setting [6]) was not below 77700 nM; with HLA-B*40:02 (setting [6]) it was 10300 nM; with HLA-B*44:02 (setting [6]), 295 nM; with HLA-B*40:01 (setting [6]), not below 37800 nM; with HLA-B*44:03 (setting [6]) it was 38 nM; with HLA-B*18:01 (setting [6]), 1800 nM.

Regarding NDNFLMSNV, the dissociation constant Kd was not below 10000 nM with HLA-B*45:01 (setting [7]); 2990 nM with HLA-B*40:02 (setting [7]); 13100 nM with HLA-B*44:02 (setting [7]); not below 27600 nM with HLA-B*40:01 (setting [7]); 19600 nM with HLA-B*44:03 (setting [7]); not below 43600 nM with HLA-B*18:01 (setting [7]).

NELSLALGL: the Kd was determined as 5850 nM with HLA-B*45:01 (setting [3]); 154 nM with HLA-B*40:02 (setting [3]); 409 nM with HLA-B*44:02 (setting [3]); 277 nM with HLA-B*40:01 (setting [3]); 28.5 nM with HLA-B*44:03 (setting [3]); 90.9 nM with HLA-B*18:01 (setting [3]).

Consider NVPGPHRTI, for which the IC50 with HLA-A*24:02 came to 2200 nM; with HLA-A*11:01 (setting [4]), 54400 nM; with HLA-A*02:01 it was 16000 nM.

As for RPALVFDIT, the Kd with HLA-B*51:01 [1] (setting [8]) was not below 30700 nM; in the assay with HLA-B*53:01 (setting [8]), not below 50200 nM; in the assay with HLA-B*08:01 it was 2910 nM; with HLA-B*35:01 (setting [8]), 2080 nM; with HLA-B*54:01 (setting [8]) it was 95.4 nM.

For SDFLISEML, the dissociation constant (Kd) is not below 27600 nM with HLA-B*45:01 (setting [9]); 17.1 nM with HLA-B*40:02 (setting [9]); 2400 nM with HLA-B*44:02 (setting [9]); 11500 nM with HLA-B*40:01 (setting [9]); not below 51500 nM with HLA-B*44:03 (setting [9]); not below 56000 nM with HLA-B*18:01 (setting [9]).

In the case of SELVIGAVI, the Kd with HLA-B*45:01 (setting [3]) stood at 155 nM; with HLA-B*40:02 (setting [3]), 55.9 nM; in the assay with HLA-B*44:02 (setting [3]), 605 nM; with HLA-B*40:01 (setting [3]) it was 88.9 nM; with HLA-B*44:03 (setting [3]), 426 nM; with HLA-B*18:01 (setting [3]), 2590 nM.

SQNSTEGRR registered an IC50 with HLA-A*11:01 (source organism: Sudan ebolavirus) of 22400 nM.

Regarding SSSMRKTDWL, the values for the Kd with HLA-A*01:01 and with HLA-B*57:01 were not below 49700 nM and 3140 nM, respectively.

Regarding TEGLCVDIPG, the Kd with HLA-B*45:01 (setting [3]) was 74.8 nM; in the assay with HLA-B*40:02 (setting [3]), 91.8 nM; with HLA-B*44:02 (setting [3]), not below 43300 nM; with HLA-B*40:01 (setting [3]), not below 69600 nM; with HLA-B*44:03 (setting [3]), not below 34900 nM; with HLA-B*18:01 (setting [3]) it was not below 70500 nM.

Consider TFSILNRKA, for which the concentration for half-maximal inhibition (IC50) with HLA-A*11:01 (setting [4]) turned out to be 66500 nM.

Regarding TPVSMTYLY, the Kd in the assay with HLA-B*07:02 (setting [5]) was 170 nM; with HLA-B*51:01 [1] (setting [5]), not below 77500 nM; in the assay with HLA-B*35:01 (setting [5]), 0.0662 nM; in the assay with HLA-B*54:01 (setting [5]) it was 972 nM.

For VETFYPKLQA, the Kd was 2600 nM with HLA-B*45:01 (setting [3]); 12600 nM in the assay with HLA-B*40:02 (setting [3]); not below 70200 nM in the assay with HLA-B*44:02 (setting [3]); not below 69600 nM in the assay with HLA-B*40:01 (setting [3]); not below 41400 nM with HLA-B*44:03 (setting [3]); not below 59600 nM with HLA-B*18:01 (setting [3]).

VTLNASQYA had a half-maximal inhibitory concentration (IC50) with HLA-A*11:01 (source organism: Vaccinia virus Copenhagen) not below 227000 nM.

As to WEPEFYEAMY, the dissociation constant Kd in the assay with HLA-B*45:01 (setting [3]) is not below 52400 nM; with HLA-B*40:02 (setting [3]), 7180 nM; with HLA-B*44:02 (setting [3]), 2220 nM; in the assay with HLA-B*40:01 (setting [3]) it was 5410 nM; with HLA-B*44:03 (setting [3]) it was 377 nM; with HLA-B*18:01 (setting [3]), 1650 nM.
